Source: publication PMC11432006
Changes are numbered by the printed parent chain. Names and notes keep the numbering of the source.

B1: anti-lysozyme VNAR (lyso-VNAR) C30A; C112.1S (protein)
chain: ARVDQTPQTITKETGESLTINCVLRDSNAALSSTYWYRKKSGSTNEESISKGGRYVETVNSGSKSFSLRINDLTVEDSGTYRCKPESRYGSYDAESAALNDQYGGGTVVTVN
B2: anti-lysozyme VNAR (lyso-VNAR) C30G; C112.1A (protein)
chain: B1 chain with A29G, S96A
B3: anti-lysozyme VNAR (lyso-VNAR) C30P; C112.1T (protein)
chain: B1 chain with A29P, S96T
B4: anti-lysozyme VNAR (lyso-VNAR) C30L; C112.1L (protein)
chain: B1 chain with A29L, S96L
B5: anti-lysozyme VNAR (lyso-VNAR) C30G; C112.1L (protein)
chain: B1 chain with A29G, S96L
B6: anti-lysozyme VNAR (lyso-VNAR) C30L; C112.1A (protein)
chain: B1 chain with A29L, S96A
B7: anti-lysozyme VNAR (lyso-VNAR) C30W; C112.1V (protein)
chain: B1 chain with A29W, S96V

Target: lysozyme from egg, P00698
Experiment: SPR
Conditions: chain shown with the change; lysozyme immobilized, VNAR flowed over; 1:1 fitting model

Chain of lysozyme from egg, P00698 (P00698 19-147): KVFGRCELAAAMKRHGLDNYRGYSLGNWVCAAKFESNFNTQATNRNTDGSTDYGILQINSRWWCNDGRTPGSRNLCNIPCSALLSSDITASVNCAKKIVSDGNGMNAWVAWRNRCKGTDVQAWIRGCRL

Binder | ratio to parent
B1 | 31.5
B2 | 24.1
B3 | 211
B4 | 100
B5 | 12.7
B6 | 19.1
B7 | 54.3
